Common to all, as to experiment: pulldown
Series [1] addresses PGTG_09691 (Puccinia graminis) (UniProt E3KI53). Conditions: 20 nM protein, 1.5 uM RNA pool; 20 mM HEPES pH 7.8, 70 mM KCl, 10 mM NaCl, 10% glycerol, 2 mM DTT, 0.1 ug/uL BSA; 30 min, 4 C.
For series [2], the target named is T1, HNRNPL C396G (Homo sapiens) (UniProt P14866).
T1 sequence: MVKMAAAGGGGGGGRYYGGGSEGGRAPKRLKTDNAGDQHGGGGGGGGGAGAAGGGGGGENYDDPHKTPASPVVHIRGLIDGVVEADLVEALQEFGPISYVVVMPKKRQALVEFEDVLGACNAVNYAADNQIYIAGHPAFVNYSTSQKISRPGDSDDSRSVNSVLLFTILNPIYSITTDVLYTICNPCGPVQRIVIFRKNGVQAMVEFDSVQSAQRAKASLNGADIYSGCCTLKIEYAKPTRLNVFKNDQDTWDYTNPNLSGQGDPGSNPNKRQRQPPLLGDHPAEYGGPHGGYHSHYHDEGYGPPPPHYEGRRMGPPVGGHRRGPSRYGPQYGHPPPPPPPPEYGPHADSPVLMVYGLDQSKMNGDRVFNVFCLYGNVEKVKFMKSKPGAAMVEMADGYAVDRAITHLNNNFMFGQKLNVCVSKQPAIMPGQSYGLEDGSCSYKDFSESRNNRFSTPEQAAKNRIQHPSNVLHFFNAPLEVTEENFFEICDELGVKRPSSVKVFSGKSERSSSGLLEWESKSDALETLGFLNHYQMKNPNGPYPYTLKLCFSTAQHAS
Conditions: 20 nM protein, 1.5 uM RNA pool; 20 mM HEPES pH 7.8, 70 mM KCl, 10 mM NaCl, 10% glycerol, 2 mM DTT, 0.1 ug/uL BSA; 30 min, 4 C (protocol of this paper; not …); cited from earlier work.

Series [3] concerns the target T2, pab-1 (Caenorhabditis elegans) (UniProt Q9U302).
T2 sequence: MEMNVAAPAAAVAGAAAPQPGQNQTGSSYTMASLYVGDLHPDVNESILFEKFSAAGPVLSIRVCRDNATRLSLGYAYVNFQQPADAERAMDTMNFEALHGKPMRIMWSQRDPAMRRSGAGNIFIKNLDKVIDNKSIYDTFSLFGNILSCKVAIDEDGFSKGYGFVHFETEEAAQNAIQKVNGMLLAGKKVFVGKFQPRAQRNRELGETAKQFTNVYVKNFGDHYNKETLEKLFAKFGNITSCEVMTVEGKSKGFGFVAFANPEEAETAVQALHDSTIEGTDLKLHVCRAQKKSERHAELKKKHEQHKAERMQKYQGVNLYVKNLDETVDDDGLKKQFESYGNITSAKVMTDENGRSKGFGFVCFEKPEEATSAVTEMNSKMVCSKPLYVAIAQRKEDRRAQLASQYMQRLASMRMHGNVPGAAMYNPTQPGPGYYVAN
Conditions: 20 nM protein, 1.5 uM RNA pool; 20 mM HEPES pH 7.8, 70 mM KCl, 10 mM NaCl, 10% glycerol, 2 mM DTT, 0.1 ug/uL BSA; 30 min, 4 C.

Series [4] deals with T3, snrpB2 (Dictyostelium discoideum) (UniProt Q54J05).
T3 sequence: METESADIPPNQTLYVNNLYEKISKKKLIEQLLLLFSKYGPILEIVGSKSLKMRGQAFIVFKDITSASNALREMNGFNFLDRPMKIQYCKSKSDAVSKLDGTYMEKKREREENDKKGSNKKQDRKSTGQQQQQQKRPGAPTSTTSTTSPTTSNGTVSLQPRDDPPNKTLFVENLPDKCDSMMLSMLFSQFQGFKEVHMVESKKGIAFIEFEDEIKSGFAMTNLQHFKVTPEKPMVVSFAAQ
Particulars: 20 nM protein, 1.5 uM RNA pool; 20 mM HEPES pH 7.8, 70 mM KCl, 10 mM NaCl, 10% glycerol, 2 mM DTT, 0.1 ug/uL BSA; 30 min, 4 C.

In series [5] the target is PGTG_00837 (Puccinia graminis) (UniProt E3JTY5). Particulars: 20 nM protein, 1.5 uM RNA pool; 20 mM HEPES pH 7.8, 70 mM KCl, 10 mM NaCl, 10% glycerol, 2 mM DTT, 0.1 ug/uL BSA; 30 min, 4 C.
Series [6] addresses T4, rnp-3 (Caenorhabditis elegans) (UniProt Q21323).
T4 sequence: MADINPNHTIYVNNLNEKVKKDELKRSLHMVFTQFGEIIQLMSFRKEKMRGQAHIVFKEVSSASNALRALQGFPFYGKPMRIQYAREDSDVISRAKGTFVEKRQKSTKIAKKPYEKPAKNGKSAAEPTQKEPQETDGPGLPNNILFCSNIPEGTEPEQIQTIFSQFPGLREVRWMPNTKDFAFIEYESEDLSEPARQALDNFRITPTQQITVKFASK
Conditions: 20 nM protein, 1.5 uM RNA pool; 20 mM HEPES pH 7.8, 70 mM KCl, 10 mM NaCl, 10% glycerol, 2 mM DTT, 0.1 ug/uL BSA; 30 min, 4 C.

Series [7] addresses fmr1 (Xenopus tropicalis) (UniProt Q6GLC9). Particulars: 20 nM protein, 1.5 uM RNA pool; 20 mM HEPES pH 7.8, 70 mM KCl, 10 mM NaCl, 10% glycerol, 2 mM DTT, 0.1 ug/uL BSA; 30 min, 4 C.
Series [8] addresses T5, CG15440 (Drosophila melanogaster) (UniProt Q7KU43).
T5 sequence: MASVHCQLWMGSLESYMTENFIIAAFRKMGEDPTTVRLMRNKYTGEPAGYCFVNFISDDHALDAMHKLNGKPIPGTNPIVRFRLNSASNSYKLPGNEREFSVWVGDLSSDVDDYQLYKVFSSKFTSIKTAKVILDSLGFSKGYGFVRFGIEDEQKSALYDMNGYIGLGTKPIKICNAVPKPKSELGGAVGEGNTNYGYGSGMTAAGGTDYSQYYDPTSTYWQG
Particulars: 20 nM protein, 1.5 uM RNA pool; 20 mM HEPES pH 7.8, 70 mM KCl, 10 mM NaCl, 10% glycerol, 2 mM DTT, 0.1 ug/uL BSA; 30 min, 4 C.

For series [9], the target named is T6, UBA2B (Arabidopsis thaliana) (UniProt O80678).
T6 sequence: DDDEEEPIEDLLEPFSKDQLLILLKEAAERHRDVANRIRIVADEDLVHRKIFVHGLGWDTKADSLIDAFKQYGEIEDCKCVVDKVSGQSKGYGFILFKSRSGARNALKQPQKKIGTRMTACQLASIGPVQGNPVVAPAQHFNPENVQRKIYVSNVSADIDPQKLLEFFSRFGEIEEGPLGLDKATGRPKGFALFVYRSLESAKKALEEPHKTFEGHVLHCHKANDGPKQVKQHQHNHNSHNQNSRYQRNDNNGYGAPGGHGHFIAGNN
Conditions: 20 nM protein, 1.5 uM RNA pool; 20 mM HEPES pH 7.8, 70 mM KCl, 10 mM NaCl, 10% glycerol, 2 mM DTT, 0.1 ug/uL BSA; 30 min, 4 C.

Among the data in article PMC12990809 are binding signal (z-score (mean of top ten 7-mers)) values, retold here.

Chain of fmr1 (Xenopus tropicalis) (Q6GLC9 170-401): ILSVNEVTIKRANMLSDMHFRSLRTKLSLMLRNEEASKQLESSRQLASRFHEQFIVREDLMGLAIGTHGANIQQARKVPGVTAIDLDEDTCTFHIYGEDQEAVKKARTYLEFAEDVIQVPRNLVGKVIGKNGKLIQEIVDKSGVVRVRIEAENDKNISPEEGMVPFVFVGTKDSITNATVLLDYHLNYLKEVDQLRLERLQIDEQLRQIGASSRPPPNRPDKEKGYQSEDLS

Consider UUGCAC [RNAcompete motif RNCMPT00482], for which, in series [1], the binding signal (z-score (mean of top ten 7-mers)) was determined as 11.4.
For the sequence ACACACAA [RNAcompete motif RNCMPT00027], in [2], the binding signal (z-score (mean of top ten 7-mers)) is 8.6.
For the sequence AAAAAA [RNAcompete motif RNCMPT00471], in series [3], the binding signal (z-score (mean of top ten 7-mers)) stood at 12.5.
For AGCAC [RNAcompete motif RNCMPT00507], in series [4], the binding signal (z-score (mean of top ten 7-mers)) came out at 12.9.
Sequence GGUGGA [RNAcompete motif RNCMPT00476] registered a binding signal (z-score (mean of top ten 7-mers)) in series [5] of 6.99.
In turn, AGCACGG [RNAcompete motif RNCMPT00510] yielded a binding signal (z-score (mean of top ten 7-mers)) in series [6] of 14.1.
In turn, AAGACAA [RNAcompete motif RNCMPT00474] displayed a binding signal (z-score (mean of top ten 7-mers)) in series [7] of 6.01.
Sequence GAUAUU [RNAcompete motif RNCMPT00513] displayed a binding signal (z-score (mean of top ten 7-mers)) in series [8] of 13.9.
For UUUUU [RNAcompete motif RNCMPT00475], the binding signal (z-score (mean of top ten 7-mers)) in series [9] is 10.7.
